Measurements reported in publication PMC3398583, “Functional Cloning and Expression of the Schizophyllum commune Glucuronoyl Esterase Gene and Characterization of the Recombinant Enzyme” (Biotechnology Research International, 2012).

Substrate: COC(=O)[C@H]1O[C@H](O[C@H]2[C@H](Oc3ccc([N+](=O)[O-])cc3)OC[C@@H](O)[C@@H]2O)[C@H](O)[C@@H](O)[C@@H]1OC
Test: purified protein
Assay type: biochemical, Schizophyllum commune
Conditions: 50 mM Na phosphate, pH 6.0, 0.08-0.4 mM substrate, 0.157 μM enzyme

B1: rScGE (recombinant Schizophyllum commune glucuronoyl esterase) (Schizophyllum commune H4-8) (protein)
chain: LSAALLAIAAFANVASAQDCDTPATVSGYSNSALPDPFTFNDGSPVTTAEDWECRRSQILALIQGYESGAAPPEPESVTGTASGNSLSVQVSYGGKSITFNNSITYPSGTAPAEGWPVIIAYEFPSLPIPSNVATLSFQNSAMGKQDSTSSRGQGLFYDLYGSSSNASAMTAWAWGVSRIIDAIESTPDAKLNPAAVGVTGCSRNGKGALMAGALEPRVALTLPQESGSGGDACWRLSRYEEQQGSQVQTATEIVGENCWFSAGFDQYVNNLDSLPYDHHLLAALVAPRGLISYANTDYVWLSGMSSFGCMTAAHAVYEALGVPENHGFEQVGGHSHCQWPSQLDGSLNAFINKFLLGQDVSTDYFESNNQFNGVTWSESQWINWETPTLN
notes: synthetic gene, all 393 residues except start Met (native signal peptide 1-19 in the construct); pGAPZalpha-A alpha-factor secretion, C-terminal myc and His tags; Pichia pastoris SMD1168; glycosylated, 53 kD (46 kD after N-glycosidase F)
B1 gave a Km of 250 µM and a kcat of 9.27 s⁻¹.
